The data set deals with the molecule itself. Put plainly: NMR solution structure.

B1: carboxy-terminal domain (CTD) fragment of λ Ea22 (102-182) (domain or fragment, bacteriophage λ)
chain: SNEVREDGNQFLVVRHPGKTPVIKHCTGDLEEFLRQLIEQDPLVTIDIITHRYYGVGGQWVQDAGEYLHMMSDAGIRIKGEIETAV
With B1, the binding result is reported as “binds”.

The values above are taken from article doi:10.1101/2023.09.01.555870 (bioRxiv, 2023).
